# Results from patent publication US20130195884A1, “NOVEL MODULATORS OF TRAIL SIGNALLING” (Deutsches Krebsforschungszentrum, priority 2009, published 2013).
# B1: TRAIL: death-inducing ligand, recombinant TRAIL used to trigger apoptosis in HeLa cells (protein, UniProt P50591 1-281, looked up)
# Tumor necrosis factor ligand …: MAMMEVQGGPSLGQTCVLIVIFTVLLQSLCVAVTYVYFTNELKQMQDKYSKSGIACFLKEDDSYWDPNDEESMNSPCWQVKWQLRQLVRKMILRTSEETISTVQEKQQNISPLVRERGPQRVAAHITGTRGRSNTLSSPNSKNEKALGRKINSWESSRSGHSFLSNLHLRNGELVIHEKGFYYIYSQTYFRFQEEIKENTKNDKQMVQYIYKYTSYPDPILLMKSARNSCWSKDAEYGLYSIYQGGIFELKENDRIFVSVTNEHLIDMDHEASFFGAFLVG
# Tests used:
# [1] = test system: freshly isolated human hepatocytes; conditions: cited from earlier work
# [2] = cited from earlier work
# [3] = test system: low-grade Non-Hodgkin Lymphoma (NHL); conditions: combination with rituximab, phase Ib, cited from earlier work
# [4] = test system: HeLa cells; assay: Titration of TRAIL-induced apoptosis, cell viability by ATP quantification (CellTiterGlo); assay type: cell-based, human
# Description: FIG. 2: Titration curve for TRAIL-induced apoptosis. HeLa cells were stimulated with 0.001 to 1000 ng/ml TRAIL, followed by analysis of cell viability by the quantification of ATP (CelliterGlo® assay).
# FIG. 5. TRAIL-induced cell death in HeLa cells can be rescued by siRNAs. (A) TRAIL induces apoptosis in HeLa cells. Membrane blebbing was observed after 1-2 hours and a complete loss of viable cells was detected after 24 hours. (B) The killing activity of TRAIL in HeLa cells is concentration dependent. (C) Silencing the TRAIL-R1 receptor and caspase-8 with siRNAs, rescued the apoptotic effect to 70% and 100% viability of untreated cells, respectively.
# Cell viability was quantified by the measurement of ATP (CeIlTiterGlo® Luminescent Cell Viability Assay) or the quantification of mitochondrial activity (MTT assay). CellTiterGlo® Luminescent Cell Viability Assay was performed according to manufacturer's instructions. Briefly, 24 h after TRAIL treatment, CellTiterGlo® reagent was added to the medium. After mixing and shaking for 2 min, the luminescent signal was measured using Mithras LB 940 (Berthold Technologies, Bad Wildbad, Germany).
# To determine the exact sensitivity to TRAIL-induced apoptosis, a dose-response curve ranging from 0.01 to 1000 ng/ml TRAIL was performed. Cell viability was quantified 24 h later by the CellTiterGlo® assay as this method is very sensitive, reproducible and applicable for high-throughput approaches. […] Maximum cell death is reached at TRAIL concentrations around 100 ng/ml (cf. FIG. 2).
# The death-inducing ligand TRAIL triggers apoptosis in HeLa cells shortly after application (FIG. 5 A). During this process, the cytoplasm shrinks, the DNA condensates and the cell membrane starts blebbing, releasing fragments of the cell in a controlled manner (reviewed in Yasuhara 2007). […] This process was also monitored with a cell-based viability assay, quantifying cellular ATP-levels. TRAIL induced cell death in HeLa cells in a dose-dependant manner (FIG. 5 B).
molecule,measurement,setting,value
HIS-TRAIL: soluble TRAIL with an N-terminal polyhistidine tag,Toxicity on freshly isolated human hepatocytes,[1],considerable toxicity
"rhApo2L/TRAIL: untagged version of recombinant soluble TRAIL, co-developed by Genentech and Amgen",Toxicity in patients receiving the single agent,[2],no dose-limiting toxicity (DLT) or severe adverse effects (SAEs)
same,Serious adverse events of the combination,[3],two SAEs possibly related to the combination
same,Tumor response assessment,[3]; eight patients with low-grade NHL,"two showed complete response, one a partial response and five stable disease"
B1,Membrane blebbing observed after,[4]; HeLa cells after addition of TRAIL,1 to 2 h
same,Viable cells left after TRAIL treatment,"[4]; HeLa cells, 100 ng/ml recombinant TRAIL, 24 hours",no viable cells were left
same,TRAIL concentration at which maximum cell death is reached,"[4]; HeLa cells, dose-response 0.01 to 1000 ng/ml TRAIL, viability after 24 h, CellTiterGlo",around 100 ng/ml
